{
  "source": "patent US20230139516",
  "proteins": {"B1": {"name": "GST-MKK7 (protein)", "chain": "MAASSLEQKLSRLEAKLKQENREARRRIDLNLDISPQRPRPTLQLPLANDGGSRSPSSESSPQHPTPPARPRHMLGLPSTLFTPRSMESIEIDQKLQEIMKQTGYLTIGGQRYQAEINDLENLGEMGSGTCGQVWKMRFRKTGHVIAVKQMRRSGNKEENKRILMDLDVVLKSHDCPYIVQCFGTFITNTDVFIAMELMGTCAEKLKKRMQGPIPERILGKMTVAIVKALYYLKEKHGVIHRDVKPSNILLDERGQIKLCDFGISGRLVDSKAKTRSAGCAAYMAPERIDPPDPTKPDYDIRADVWSLGISLVELATGQFPYKNCKTDFEVLTKVLQEEPPLLPGHMGFSGDFQSFVKDCLTKDHRKRPKYNKLLEHSFIKRYETLEVDVASWFKDVMAKTESPRTSGVLSQPHLPFFR"}},
  "molecular_target": "6×His-c-Myc, P01106",
  "sequence (P01106 16-454)": "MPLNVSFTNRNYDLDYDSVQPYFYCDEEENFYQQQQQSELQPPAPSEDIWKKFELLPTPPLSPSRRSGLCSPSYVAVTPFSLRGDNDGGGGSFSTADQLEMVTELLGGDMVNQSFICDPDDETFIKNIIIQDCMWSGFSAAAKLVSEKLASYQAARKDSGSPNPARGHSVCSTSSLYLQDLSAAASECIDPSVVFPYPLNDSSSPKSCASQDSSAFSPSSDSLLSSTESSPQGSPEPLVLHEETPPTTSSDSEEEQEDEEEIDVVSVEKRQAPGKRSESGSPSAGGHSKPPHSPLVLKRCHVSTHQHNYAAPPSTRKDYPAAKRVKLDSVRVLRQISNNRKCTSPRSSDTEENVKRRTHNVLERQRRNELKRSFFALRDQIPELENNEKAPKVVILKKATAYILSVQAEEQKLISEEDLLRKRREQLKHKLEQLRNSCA",
  "data": [
    {"protein": "B1", "values": [
      {"measurement": "in vitro kinase assay, immunoblot for p-c-Myc-Ser62", "value": "recombinant MKK7 could directly phosphorylate c-Myc-Ser62"}
    ]}
  ]
}
